ChEMBL document CHEMBL4304758, “Development of Peptide-Based Sirtuin Defatty-Acylase Inhibitors Identified by the Fluorescence Probe, SFP3, That Can Efficiently Measure Defatty-Acylase Activity of Sirtuin” (J Med Chem, 2019)

Assays:
[1] = compound: CC[C@H](C)[C@H](NC(=O)[C@H](CCCNC(=N)N)NC(C)=O)C(=O)N[C@@H](CCCCNC(=O)Cc1ccc(/N=N/c2ccc(O)cc2)cc1)C(=O)N[C@@H](CCCNC(=N)N)C(=O)N[C@@H](Cc1ccc(O)cc1)C(N)=O; experiment: Mixed-inhibition of recombinant human SIRT2 defatty-acylase activity assessed as substrate Km at 30 nM using varying levels of SFP3 as substrate measured at 1 min interval for 30 mins in presence of NAD+ by Michaelis-Menten plot analysis (reference value: 0.55 +/- 0.04 uM)
[2] = compound: CCCCCCCCCCCCCC(=S)NCCCC[C@H](NC(=O)[C@@H](NC(=O)[C@H](CCCNC(=N)N)NC(C)=O)[C@@H](C)CC)C(=O)N[C@@H](CCCNC(=N)N)C(=O)N[C@@H](Cc1ccc(O)cc1)C(N)=O; experiment: as above
[3] = compound: CC[C@H](C)[C@H](NC(=O)[C@H](CCCNC(=N)N)NC(C)=O)C(=O)N[C@@H](CCCCNC(=O)Cc1ccc(/N=N/c2ccc(O)cc2)cc1)C(=O)N[C@@H](CCCNC(=N)N)C(=O)N[C@@H](Cc1ccc(O)cc1)C(N)=O; experiment: Mixed-inhibition of recombinant human SIRT2 defatty-acylase activity assessed as substrate Km at 15 nM using varying levels of SFP3 as substrate measured at 1 min interval for 30 mins in presence of NAD+ by Michaelis-Menten plot analysis (reference value: 0.55 +/- 0.04 uM)
[4] = compound: CCCCCCCCCCCCCC(=S)NCCCC[C@H](NC(=O)[C@@H](NC(=O)[C@H](CCCNC(=N)N)NC(C)=O)[C@@H](C)CC)C(=O)N[C@@H](CCCNC(=N)N)C(=O)N[C@@H](Cc1ccc(O)cc1)C(N)=O; experiment: as above
[5] = compound: CC[C@H](C)[C@H](NC(=O)[C@H](CCCNC(=N)N)NC(C)=O)C(=O)N[C@@H](CCCCNC(=O)Cc1ccc(/N=N/c2ccc(O)cc2)cc1)C(=O)N[C@@H](CCCNC(=N)N)C(=O)N[C@@H](Cc1ccc(O)cc1)C(N)=O; experiment: Mixed-inhibition of recombinant human SIRT2 defatty-acylase activity assessed as substrate Km at 20 nM using varying levels of SFP3 as substrate measured at 1 min interval for 30 mins in presence of NAD+ by Michaelis-Menten plot analysis (reference value: 0.55 +/- 0.04 uM)
[6] = compound: CCCCCCCCCCCCCC(=S)NCCCC[C@H](NC(=O)[C@@H](NC(=O)[C@H](CCCNC(=N)N)NC(C)=O)[C@@H](C)CC)C(=O)N[C@@H](CCCNC(=N)N)C(=O)N[C@@H](Cc1ccc(O)cc1)C(N)=O; experiment: as above

B1: NAD-dependent protein deacetylase sirtuin-2 (Homo sapiens), Q8IXJ6 (protein)
chain: MAEPDPSHPLETQAGKVQEAQDSDSDSEGGAAGGEADMDFLRNLFSQTLSLGSQKERLLDELTLEGVARYMQSERCRRVICLVGAGISTSAGIPDFRSPSTGLYDNLEKYHLPYPEAIFEISYFKKHPEPFFALAKELYPGQFKPTICHYFMRLLKDKGLLLRCYTQNIDTLERIAGLEQEDLVEAHGTFYTSHCVSASCRHEYPLSWMKEKIFSEVTPKCEDCQSLVKPDIVFFGESLPARFFSCMQSDFLKVDLLLVMGTSLQVQPFASLISKAPLSTPRLLINKEKAGQSDPFLGMIMGLGGGMDFDSKKAYRDVAWLGECDQGCLALAELLGWKKELEDLVRREHASIDAQSGAGVPNPSTSASPKKSPPPAKDEARTTEREKPQ
- Km [1]: 2.5 µM
- Km [2]: 1.1 µM
- Km [3]: 0.76 µM
- Km [4]: 0.47 µM
- Km [5]: 1.1 µM
- Km [6]: 0.48 µM
